Experimental data reported in paper PMC3972757.

How the values were obtained:
[1] = biological target: catalytic domain of AMSH, AMSH 219-424 E280A (human) (UniProt O95630); assay: AUC
[2] = biological target: catalytic domain of AMSH, AMSH 219-424 E280A (human) (UniProt O95630); assay: ITC
[3] = biological target: ubiquitin (Homo sapiens) (UniProt P0CG48); assay: biosensor; settings: cited from earlier work

Chain of catalytic domain of AMSH, AMSH 219-424 E280A (human) (O95630 219-424 E280A): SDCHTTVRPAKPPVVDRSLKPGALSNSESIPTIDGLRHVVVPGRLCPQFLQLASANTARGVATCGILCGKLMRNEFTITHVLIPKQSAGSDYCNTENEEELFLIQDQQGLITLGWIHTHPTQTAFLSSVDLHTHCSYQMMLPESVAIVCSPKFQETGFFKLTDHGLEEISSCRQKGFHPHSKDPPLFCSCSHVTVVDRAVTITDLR
Chain of STAM UIM (Q92783 168-193): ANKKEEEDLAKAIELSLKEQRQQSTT

Row | stoichiometry N [1] | Kd [2] | dH [2] | Substance | Kd [3]
1 | 1 | 1.4 µM | -15.1 kcal/mol | SH3 domain of STAM2 (from UniProt O75886 202-261) (domain or fragment) | –
2 | – | – | – | STAM UIM (from UniProt Q92783) | 182 µM
